Measured values from article PMC4287450, “PRDM9 Drives Evolutionary Erosion of Hotspots in Mus musculus through Haplotype-Specific Initiation of Meiotic Recombination”.

B1: chr1_158 oligo 1 (dsDNA)
DNA 1: CGTCTGCTCTCTGTAGGAAGTGCTCCATGGACAGTAGCTTCTGCCTTTCCTT
DNA 2: AAGGAAAGGCAGAAGCTACTGTCCATGGAGCACTTCCTACAGAGAGCAGACG
B2: chr1_185 oligo 2 (dsDNA)
DNA 1: AGAGAGAAAAAAAACTAAAGTTACAGTAGCTTCATGTTGTAGATGGGTATATACCGCT
DNA 2: AGCGGTATATACCCATCTACAACATGAAGCTACTGTAACTTTAGTTTTTTTTCTCTCT
B3: chr1_185 oligo 1 (dsDNA)
DNA 1: TCCCAGGACTATGAGTTTAGAGAGAAAAAAAACTAAAGTTACAGTAGCTTCATGTTG
DNA 2: CAACATGAAGCTACTGTAACTTTAGTTTTTTTTCTCTCTAAACTCATAGTCCTGGGA

molecular target: PRDM9Dom2 (Mus musculus domesticus (B6 allele), UniProt Q96EQ9 513-843); assay: competition; 20x unlabeled vs labeled CAST DNA; EMSA as in Billings et al. 2013 (buffer, pH, temperature not given); unlabeled competitor dsDNA at 20x labeled DNA; details: protein: recombinant; blunt
Sequence (Q96EQ9 513-843): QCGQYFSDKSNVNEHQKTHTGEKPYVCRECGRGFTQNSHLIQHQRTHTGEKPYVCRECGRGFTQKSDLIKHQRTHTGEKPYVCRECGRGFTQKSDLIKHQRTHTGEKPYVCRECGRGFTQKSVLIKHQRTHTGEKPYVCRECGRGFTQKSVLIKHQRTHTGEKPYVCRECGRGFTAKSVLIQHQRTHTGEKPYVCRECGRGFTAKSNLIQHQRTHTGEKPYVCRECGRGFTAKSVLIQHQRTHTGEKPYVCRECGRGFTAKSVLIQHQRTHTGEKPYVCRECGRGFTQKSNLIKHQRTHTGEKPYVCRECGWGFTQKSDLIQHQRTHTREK

Binding result, binds:
B1
B2
B3
